Values quoted from earlier work, collected in PMC4010523.

Biological target: complement C5 (Homo sapiens) (UniProt P01031)

Kd: 0.12 nM
Substance: Eculizumab
